Assay results taken from PMC7913460, “Targeting hydroxycinnamoyl CoA: shikimate hydroxycinnamoyl transferase for lignin modification in Brachypodium distachyon” (Biotechnology for Biofuels, 2021).

Key:
[1] = substrate: CC(C)(COP(=O)(O)OP(=O)(O)OC[C@H]1O[C@@H](n2cnc3c(N)ncnc32)[C@H](O)[C@@H]1OP(=O)(O)O)[C@@H](O)C(=O)NCCC(=O)NCCSC(=O)/C=C/c1ccc(O)cc1; assay: HPLC product assay, forward HCT reaction; assay type: biochemical, Arabidopsis thaliana; conditions: 500 µM shikimic acid, 100 mM sodium phosphate pH 7.5, 500 µM DTT, kcat apparent
Source text: HPLC product assay, forward HCT reaction on AtHCT1

[2] = substrate: O=C(/C=C/c1ccc(O)c(O)c1)O[C@@H]1CC(C(=O)O)=C[C@@H](O)[C@H]1O; assay: HPLC product assay, reverse HCT reaction; assay type: biochemical, Arabidopsis thaliana; conditions: 500 µM CoA, 100 mM sodium phosphate pH 7.5, 500 µM DTT, kcat apparent, substrate tested 20 to 400 µM
Source text: HPLC product assay, reverse HCT reaction on AtHCT1

B1: AtHCT1 (Arabidopsis thaliana) (protein)
chain: MKINIRDSTMVRPATETPITNLWNSNVDLVIPRFHTPSVYFYRPTGASNFFDPQVMKEALSKALVPFYPMAGRLKRDDDGRIEIDCNGAGVLFVVADTPSVIDDFGDFAPTLNLRQLIPEVDHSAGIHSFPLLVLQVTFFKCGGASLGVGMQHHAADGFSGLHFINTWSDMARGLDLTIPPFIDRTLLRARDPPQPAFHHVEYQPAPSMKIPLDPSKSGPENTTVSIFKLTRDQLVALKAKSKEDGNTVSYSSYEMLAGHVWRSVGKARGLPNDQETKLYIATDGRSRLRPQLPPGYFGNVIFTATPLAVAGDLLSKPTWYAAGQIHDFLVRMDDNYLRSALDYLEMQPDLSALVRGAHTYKCPNLGITSWVRLPIYDADFGWGRPIFMGPGGIPYEGLSFVLPSPTNDGSLSVAIALQSEHMKLFEKFLFEI
Km [1]: 18.5 µM | kcat [1]: 17.5 s⁻¹ | kcat/Km [1]: 950000 M⁻¹ s⁻¹ | Km [2]: 225.0 µM | kcat [2]: 17 s⁻¹ | kcat/Km [2]: 76000 M⁻¹ s⁻¹
